# T1: 金黄色葡萄球菌肠毒素B (Staphylococcus aureus, UniProt P01552 28-266)
# T1 construct: Coated at 500 ng/mL
# T1 sequence: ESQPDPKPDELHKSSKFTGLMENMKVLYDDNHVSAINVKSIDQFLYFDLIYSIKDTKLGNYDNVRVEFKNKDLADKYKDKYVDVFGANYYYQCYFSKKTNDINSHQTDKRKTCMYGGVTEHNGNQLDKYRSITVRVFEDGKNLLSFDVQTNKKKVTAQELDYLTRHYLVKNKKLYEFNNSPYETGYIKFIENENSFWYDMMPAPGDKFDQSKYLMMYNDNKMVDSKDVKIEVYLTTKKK
# Target: T1, 金黄色葡萄球菌肠毒素B
# Assay: ELISA, coated antigen, HRP-conjugated nanobody, OD450
binder,measurement,value
抗金黄色葡萄球菌肠毒素A纳米抗体Anti-SEA-Nb A150 (VHH) VHH: ESGGGLVQAGGSLRLSCTTSGFTFDDYAMGWFRQAPGKEREGVSCINWNGANAYYADSVKGRFTISRDNNKNTLYLQMNSLKPEDTALYYCAAGRMPILDDHGYVYWGQGTQVTVS,binding result,no binding (tested: 500ng/mL (coated))

# Source: patent CN113185610A (UNIV NORTHWEST A&F, dated 2021)
